Measured values as given in the DeepSol protein solubility set.

Experiment: soluble on expression in E. coli; label from the status in PepcDB or PDB records

With “MTNLVDKAAHSFATQNVVFQTLATASGKLVGVVTLNVEKALNALDLDMVRAMTVQLNLWKKDPLIACVVLDGSGEKAFCAGGDVRALYHASVAAKGQVTEVAKVFFEEEYRLDYLLHTYGKPVLVWGDGIVMGGGLGLMAGASHKVVTETSRIAMPEVTIGLYPDVGGSYFLNRMPGKMGLFLGLTAYHMNAADACYVGLADHYLNRDDKELMFDAMATLDWSDSPALNHQRLDTMINELSNQVDIPKGDSVLAESQEMIDRLMAGSLTDIVTRMSTLSTDEAWLSKACATMLAGSPISWHLAYIQTQLGTKLSLAQCFKWELTVSVNVCAKGDFCEGVRALLIDKDKQPKWQFADVQSVPNSVIEDILTSPWGEEHPLSQLS” the “soluble on expression in E. coli” value was “soluble”.
In the case of “MGHHHHHHSHMQDGFLTVSIIDATNNRPIQNAVVNIYSMSNGSQSSSTLYQNLRSNESGQVTGLVLPAPDVDYSLQPSDVRPYSQYIVEAIADGYETVVIEGTQLLATIEARQGVPMSPRTRSKRSFSRQSELIFDIGEHTLYGTYPPKIPESNLKPLPPPTGFVVLDNPVVPEFIVVHDGLPEDSSAPNYWIPFKEYIKNIASSEIYSTWPEQTIYANVIAIISFTLNRVFTEWYRNKGYNFTITSTTAYDHKFINNRNLFEPINVVVDAIFNTFIKRPPTSRQPLLAQYCDGQKSQCPDQMTQWGSKDLGDQGYDYESILRYFYGDEIVFERAPIVSGVPVSFPGTTLQVGSSGQYVRTIQNQLNAISNSYPAVPKVIEDGIYGTDTENAVKIFQGIFGLPQSGVVDFKTWYEISRVYVATTRIASLNPLI”, the “soluble on expression in E. coli” value is reported as “soluble”.
For “MEEKDWEGSPLSENEAGLLCYDDEEYQFGGPAPKLQFRYLSEIGELQLLGDEDDVVISLKDLYGEIAEGKYGCCWENYEVYRYLKGLGYILGRHGVPWTTKYAVNTTPSDEDESLCAAEFFQDRDSVTKLLSDMHICDARPVFDVYLPNSQFKKSSPGEPSFVTCFSG”, the “soluble on expression in E. coli” value was “soluble”.
With “MGSDKIHHHHHHMIHKRSNSPNMKPIIEIKNLAAGYDGRTVLHDVNLNVYERDFLGIIGPNGGGKTTLIKCILGLLKPTAGEINFHAPTEASSHSQLSTSNLPLSLGYLPQYSTIDRKFPISVEEVILSGLSIQKSLTSRFTPEQREKGKHIIARMGLEGLEHRSIGQLSGGQLQRALLGRAIISDPSVLILDEPSTYIDKRFEARLYELLAEINKECAIILVSHDIGTVLQQVKSIACVNETLDYHPDTGVSTEWLERNFNCPIELLGHGTLPHRVLGEHHHHH” the “soluble on expression in E. coli” value was “not soluble”.
In the case of “MHFKDLGLHDYTLKNLMYENNCCKFYDAVDENNISYVLKFVPSDVTSEGDTFPFVDRFQVKEGVFLVYSSNDFGKEGTDYFTYTGSGGNEVHISGTSSEAGIKPQFIETCHPKHLKRGTKEQEDINSSTSKKSAVINNFSGEKTPNPRPQSSNISERETYVGILNVKCKNKNSSKIRSEKLVSSVIETKHTPGLASILSKEGTTYPNNADGKHISIVNPSSKIYHSSHKQIVKTPIPKSGLSPIERCPFNGQNIKCYSPRPLDHESPQRDFNNNFQLRILKSSVLQRRQSTQNS”, the “soluble on expression in E. coli” value is reported as “soluble”.
In the case of “NALPAGNYLVASPQRYNPPGVLDSQTELPRLLAQARREVRVQLLDYAPLSYGPDKTRPYYAVIDNAIRSAAARGVSIKLMVSDWNTGMPEVAYLKSLALVPNVQVRIVTLPVAAEGFIPYARVIHSKTMDIDDQVAWVGTSNWLGGYLDNSRNLEVVMHDSTMAKRIGVLHEQLWDGPYAKPIDINRDYPEPH”, the “soluble on expression in E. coli” value is reported as “not soluble”.
For “MSCYYYCKYCKEYKNKHHDCCKNTSKCHDNKDNLVRASAFRARNTVNQNVPANTFVKVLFQNEQFDLANEYNPATSIFMPKTKGVYSIIGTIGFFPNDPTLNYRARVEIRVNGNAAIAIDNDFFGPISFGNVVSVSTIVQLNAGDEVEIYAQSSIDGVLSPLEDGAHFEAARFPSPIKLEHHHHHH”, the “soluble on expression in E. coli” value was “not soluble”.
For “MQDLPPCPKCNDAYTYHDGTQLICPSCLYEWNENEVNDEELIVKDCHNNLLQNGDSVILIKDLKVKNSSLVLKKGTKIKNTKLVNSDHNVDCKIEGQSLSLKSEFLKKA”, the “soluble on expression in E. coli” value was “not soluble”.
For “MVVLHVKRGDESQFLLQAPGSTELEELTAQVARVYNGRLKVHRLCSEMEELAEHGVFLHPNMQGLTDEQIEELKLKDEWGEKCVPSGGSVFTKDEIGRRNGQAPNEKMKQVLKKTVEEAKAIVSKKQVEAGVFVTMEMVKDALDQLRGAVMIVYPMGLPPYDPIRMEFENKEDLSGTQAALEVIQESEAQLWWAAKELRRTKKLSDYVGKNEKTKIIVKIQQRGQGAPAREPVISSEEHKQLMLFYHRRQEELKKLEENDDDSCLNSPWADNTALKRHFHGVKDIKWRPR”, the “soluble on expression in E. coli” value was “soluble”.
In the case of “SAAAIAASALPGAFGRLVSVCSRSILASQGSGSASLWSASRRFNSQSASYPQGYVPKTSLSSPPWQEVVLPDPVEETRHHAEVVKRVNELIATGQYGRLFAVVHFASHQWKVTAEDLILIENELDIKCGERIRLEKVLLVGADNFTLLGKPLLRKELVRVEATVIEKTESWPKINMKFRKRKNFRKKKIIVNPQTILRINTIEIAPRLL”, the “soluble on expression in E. coli” value is reported as “soluble”.
With “MKNMNKYENCLLCPRKCGINRSTGQTGVCGVSSEIKVARAALHYWEEPCISGKRGSGAVFFSGCSLHCVFCQNREISDGKAGKVISKERLSDIFMELADKGANNINLVTPGQYIPDIVWAVNDAKSRGMKLPIIYNTSGYENVTELKLLEGIVDVYLPDFKYMDSTLSARYSRAKDYPSVAKQALSEMVRQQPDVVIDDATGLIQKGVIVRQLLLPGHVNDAKAVLKYLYDTYHDHVYISMMSQFTPIALKDYPEINRTVTRREYERLVDYALEIGITNAFIQEGDVAKDSFIPAFDCEGV” the “soluble on expression in E. coli” value was “not soluble”.
For “QVKPFSFVRDTDPVQLVNFLQSEHPQTIAVVLSYLDPPVAAQILGALPEELQTEVLKRIALLERTSPEVVKEIERNLEKKISGFVSRTFSKVGGIDTAAEIMNNLDRTTEKKIMDKLVQENPELADEIRRRMFVFEDILKLDDRSIQLVLREVDTRDLALALKGASDELKEKIFKNMSKRAAALLKDELEYMGPVRLKDVEEAQQKIINIIRRLEEAGEIVIARGGGEELIM”, the “soluble on expression in E. coli” value was “soluble”.
In the case of “MTTSPTENAHAVVLGGSVAGCLAAAVLARRYPRVTIVEKSDFHNETGARQSVPQEHHVHLLLQRGKDIMEAIFPGFLSELEQAGALVADLGHDVKWYQAGRWKNRYRCGIHAHYCSRRLIDTHLRRRVARLPQVTVLSRTQMEGLDFRRDGDRLAVGGVRLRNDDHAWTLDADALVDASGRGTRLPGWLETAGLGAVDKSMVKTDLGYASRIYRRRPEFANQWKVLLVLATPPHQRAMGVISPIEGDRWMVTTGGWFGHYPDRDPNAFLKALAALPMPDIHQVIRDAEPLSDVSVFRMPGSLRRHYDRLPRWPDGLLVVGDALASMNPLYSQGMTLCALEAECLDENLDALLAGGLRCQELQEKLCRALDPAWQMAVTEDLRFPETEGERGWRTRFLHWYGAGLTRLSAYHRGALEAQIGVSNLIVNPSRLYAPPIAARIVLGSLLPGEARTLEHHHHHH”, the “soluble on expression in E. coli” value is reported as “not soluble”.
For “SAEASSANLGSGCEEKRHEGSSSESVPPGTTISRVKLLDTMVDTFLQKLVAAGSYQRFTDCYKCFYQLQPAMTQRIYDKFIAQLQTSIREEISDIKEEGNLEAVLNALDKIVEEGKVRKEPAWCEAQRCRVQQRCSLCVQAGGQRGSEETQALPVSMAGSPSPLPGSPGAQEGGV”, the “soluble on expression in E. coli” value was “soluble”.
With “MRLLLAAPHSGAGKTTVSLALLLALRARGLRVQPFKVGPDYIDPTHLEKAAARRPYNLDGFFLDETGLLALFRHGARGADFALIEGVMGLFDGKDPRGEVGSTAQVARLLKAPVALVVDAKGMAGSIAPLALGFRDFHPGVRVVGVFANRVGSERHAEILKEALKAVGLPLLGWLPQDPALALPERHLGLVLAGEVAPPLEALRRAFRVDLEGVLRLAASAPPLPEARPFLPPRRPPRARVAYAWDKAFSFYYPEALELLEALGAELVPFSPLEDEALPKAHALLLGGGYPELFAERLSANVALREAIRRFPGPIVAECGGYMYLSQGLWVGERFFPMVGLVPGEARMAERPVLGYREVEALRDSPVARKGQAFKGHEFHYARLPASPSPAWRRLGGEEVEGYTDGRVLASFVHLYLPAKPEGVERLLGLASRGKAAGAS” the “soluble on expression in E. coli” value was “soluble”.
With “MGRMIDGDWRTEADMNEHSDDGAFERDTTSFRHWVGDDVPPAAGRYHLYVSYACPWAHRTLLVRALLGLEDAISVSVVDPVRYDQGWTFDPEKPGCTPDHVFGGTHLRDVYTEADPEYTGRVTVPVLYDTDADTIVNNESEEIMRMLDVAFDDHAARDVDLYPEGYRDEVDRLIEDIYDPINNGVYRAGFADSQRAYDNAVDDLFEALAHYDDVLAEQRYLAGDVLTEADVAMFTTLYRFDEVYHTHFKCNRKRISDYDNLWPYLRELCQLPGVADTLYMEHVKQHYYRSHGHLNPKRLVPTGPNPAFFAPHDRDQLEHHHHHH” the “soluble on expression in E. coli” value was “not soluble”.
